Substitutions are numbered along the chain they refer to. Names and notes keep the numbering of the source.
Columns and labels:
Flag-CBFβ I55D = molecular target: T1, Flag-CBFβ I55D (UniProt Q13951 1-170, I55D); assay: co-IP; 293T cells co-transfected with Flag-CBFβ (4 μg) and untagged Vif (4 μg); lysates after 48 h; anti-Flag immunoprecipitation; co-precipitated Vif quantified by western blot (Odyssey) relative to wild type set to 100%; for the CBFβ mutants endogenous CBFβ was first knocked down by siRNA against the 3' UTR (Fig. 5, 7) and cells were treated with MG132 (5 μM, 16 h) in Fig. 7; settings: partners not purified
T1 construct: source: 293T, transfected, in lysate
T1 sequence: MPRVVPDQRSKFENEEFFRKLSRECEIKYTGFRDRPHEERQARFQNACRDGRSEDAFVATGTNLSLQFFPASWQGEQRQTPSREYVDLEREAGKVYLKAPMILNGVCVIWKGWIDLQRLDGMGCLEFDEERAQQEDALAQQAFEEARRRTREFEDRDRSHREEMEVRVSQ

Flag-CBFβ I55A–F68D = molecular target: T2, Flag-CBFβ I55A–F68D (UniProt Q13951 1-170, I55A | F68D); assay: as above; settings: partners not purified
T2 construct: source: 293T, transfected, in lysate
T2 sequence: T1 sequence with D55A, F68D

Flag-CBFβ I55D–F68D = molecular target: T3, Flag-CBFβ I55D–F68D (UniProt Q13951 1-170, I55D | F68D); assay: as above; settings: partners not purified
T3 construct: source: 293T, transfected, in lysate
T3 sequence: T1 sequence with F68D

Flag-CBFβ F68D = molecular target: T4, Flag-CBFβ F68D (UniProt Q13951 1-170, F68D); assay: as above; settings: partners not purified
T4 construct: source: 293T, transfected, in lysate
T4 sequence: T1 sequence with D55I, F68D

[1] = molecular target: T5, Flag-CBFβ (core-binding factor β), wild type (UniProt Q13951 1-170); assay: as above; settings: partners not purified
T5 construct: Flag-CBFβ expression plasmid obtained from Addgene; plasmid number not given; also called CBFβ-WT; WT CBFβ; source: 293T, transfected, in lysate
T5 sequence: T1 sequence with D55I

[2] = molecular target: T5, Flag-CBFβ (core-binding factor β), wild …; assay: cell-based or functional assay

B1: HIV-1 Vif, wild type (natural protein)
chain: not shown
notes: HIV-1 Vif; Untagged; also called WT Vif; source: 293T, transfected, in lysate
In the case of B1, the “binding efficiency relative to CBFβ-WT (100%)” value (Flag-CBFβ I55D) is reported as about 15%, the “binding efficiency relative to CBFβ-WT (100%)” value (Flag-CBFβ I55A–F68D) is reported as about 8% and the “binding efficiency relative to CBFβ-WT (100%)” value (Flag-CBFβ I55D–F68D) is reported as about 8%. For the same binder, the “binding efficiency relative to CBFβ-WT (100%)” value (Flag-CBFβ F68D) was about 28%.

B2: HIV-1 Vif 9IVW11 > A3 (triple-alanine substitution mutant) (natural protein)
chain: not shown
notes: HIV-1 Vif; Untagged; also called 9IVW11 > 3A; source: 293T, transfected, in lysate
In the case of B2, the “binding efficiency relative to WT Vif (100%)” value [1] is reported as 0.3%.

B3: HIV-1 Vif W11A (natural protein)
chain: not shown
B3 was tested, and the “infectivity of virus produced with A3G in CBFβ-depleted (siRNA) 293T cells, relative to WT Vif with control siRNA (100%)” value [2] was 4%.

B4: HIV-1 Vif V7A–M8A (natural protein)
chain: not shown
In the case of B4, the “infectivity of virus produced with A3G in CBFβ-depleted (siRNA) 293T cells, relative to WT Vif with control siRNA (100%)” value [2] is reported as 8%.

B5: HIV-1 Vif 5WQVM8 > A4 (quadruple-alanine substitution mutant) (natural protein)
chain: not shown
notes: HIV-1 Vif; Untagged; also called 5WQVM8 > 4A; source: 293T, transfected, in lysate
For B5, the “binding efficiency relative to WT Vif (100%)” value [1] was 2%.

From article PMC5356271, “Identification of a tripartite interaction between the N-terminus of HIV-1 Vif and CBFβ that is critical for Vif function” (Retrovirology, 2017)
